In the supplement of paper PMC6757056:
± gives the standard deviation of the averaged measurements.

B1: library; a variant is named by its letters at N, in order (parent)
chain: GCUGUCACCGAGAAACUGUGAAGUAUAUCUUAAACCUGGGCACUUAAAAGAUAUAUGGAGUUAGUAGUGCAACCUGCUCGGUCUGAUGAGUCCNNNNNNGGACGAAACAGC

Tests used:
cyclic di-GMP [1] = variants of: B1; assay: normalized RNA/DNA level without ligand (relative to sTRSVctl = 100) (log10 (% of sTRSVctl)); HEK293T; ligand: cyclic di-GMP (c-di-GMP-II aptamer); higher = less ribozyme self-cleavage, higher mRNA level; conditions: reporter: mCherry (pCS4076), ligand present: no
Outline: (§1)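 Library plasmids carrying ribozyme switches linked to mCherry, or to eGFP in some ligand experiments, were transfected into HEK293T at 4 µg per 6-well well, with any ligand added 1 h earlier. Seventy-two hours on, total RNA was extracted with EDTA and reverse-transcribed, amplified, barcoded and sequenced. RNA level was RNA over DNA reads normalized to a spiked-in non-cleaving sequence or to the top sequences, then scaled and log-transformed. The top set was 25 sequences, the transform was ×100 and log10, and sequences needed ≥100 DNA reads.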

cyclic di-GMP [2] = variants of: B1; assay: normalized RNA/DNA level with ligand (relative to sTRSVctl = 100) (log10 (% of sTRSVctl)); HEK293T; ligand: cyclic di-GMP (c-di-GMP-II aptamer); ligand concentration (+) RNA-Seq: 1 mM; higher = less ribozyme self-cleavage, higher mRNA level; conditions: reporter: mCherry (pCS4076), ligand present: yes
Outline: as §1

Row | Variant | normalized RNA/DNA level without ligand (log10) (cyclic di-GMP [1]) | normalized RNA/DNA level with ligand (log10) (cyclic di-GMP [2])
1 | AUGGAC | 1.6 ± 0.055 | 1.76 ± 0.091
2 | GUGCGU | 1.69 ± 0.052 | 1.84 ± 0.14
3 | GUGCGG | 1.86 ± 0.043 | 1.92 ± 0.08
4 | GUGCGC | 1.74 ± 0.057 | 1.88 ± 0.056
5 | GUUACG | 1.65 ± 0.075 | 1.81 ± 0.083
6 | GUUACA | 1.661 ± 0.0095 | 1.8 ± 0.11
7 | GUUACC | 1.79 ± 0.059 | 1.9 ± 0.1
8 | UUUACG | 1.83 ± 0.057 | 1.91 ± 0.12
9 | UUUACA | 1.73 ± 0.037 | 1.85 ± 0.1
10 | UUUACC | 1.75 ± 0.028 | 1.87 ± 0.058
11 | UUUACU | 1.75 ± 0.031 | 1.88 ± 0.092
12 | CUUAGU | 1.78 ± 0.051 | 1.88 ± 0.058
13 | CUUAGA | 1.61 ± 0.024 | 1.79 ± 0.12
14 | CUUAGG | 1.79 ± 0.072 | 1.89 ± 0.13
15 | GUGGUU | 1.617 ± 0.0057 | 1.78 ± 0.13
16 | CUUCAC | 1.734 ± 0.0076 | 1.86 ± 0.088
17 | CUUCAG | 1.732 ± 0.0075 | 1.81 ± 0.067
18 | AUUCUC | 1.806 ± 0.0079 | 1.89 ± 0.1
19 | AUUCUU | 1.72 ± 0.052 | 1.88 ± 0.11
20 | AUUCUA | 1.595 ± 0.0027 | 1.78 ± 0.13

Row | Variant | normalized RNA/DNA level without ligand (log10) (cyclic di-GMP [1]) | normalized RNA/DNA level with ligand (log10) (cyclic di-GMP [2])
21 | AUUCUG | 1.68 ± 0.071 | 1.81 ± 0.11
22 | CUUCCU | 1.64 ± 0.025 | 1.8 ± 0.084
23 | CUUCCG | 1.761 ± 0.017 | 1.89 ± 0.1
24 | CUUCCA | 1.61 ± 0.089 | 1.78 ± 0.085
25 | CUUCCC | 1.8 ± 0.024 | 1.88 ± 0.14
26 | AUGGCG | 1.69 ± 0.039 | 1.83 ± 0.053
27 | AUGGCA | 1.61 ± 0.02 | 1.75 ± 0.046
28 | AUGGCU | 1.75 ± 0.031 | 1.86 ± 0.15
29 | AUGGCC | 1.78 ± 0.024 | 1.9 ± 0.13
30 | GUGGGC | 1.44 ± 0.058 | 1.68 ± 0.13
31 | GUGGGG | 1.65 ± 0.021 | 1.8 ± 0.14
32 | GUGGGU | 1.66 ± 0.081 | 1.85 ± 0.064
33 | GUGGGA | 1.53 ± 0.073 | 1.72 ± 0.07
34 | CUGGCU | 1.771 ± 0.0077 | 1.87 ± 0.067
35 | CUGGCG | 1.74 ± 0.057 | 1.85 ± 0.092
36 | CUGGCA | 1.638 ± 0.015 | 1.73 ± 0.14
37 | CUGGCC | 1.8041 ± 0.00089 | 1.87 ± 0.096
38 | GUUCUU | 1.7 ± 0.084 | 1.84 ± 0.12
39 | GUUCUC | 1.75 ± 0.035 | 1.88 ± 0.068
40 | AUUGCA | 1.67 ± 0.055 | 1.81 ± 0.095

Row | Variant | normalized RNA/DNA level without ligand (log10) (cyclic di-GMP [1]) | normalized RNA/DNA level with ligand (log10) (cyclic di-GMP [2])
41 | GUGUCU | 1.72 ± 0.031 | 1.84 ± 0.13
42 | GUGUCG | 1.685 ± 0.012 | 1.79 ± 0.11
43 | GUGUCC | 1.77 ± 0.045 | 1.86 ± 0.094
44 | GUGUCA | 1.75 ± 0.027 | 1.85 ± 0.11
45 | GUUCAC | 1.737 ± 0.013 | 1.87 ± 0.09
46 | GUUCAG | 1.77 ± 0.023 | 1.86 ± 0.12
47 | GUUCAA | 1.62 ± 0.059 | 1.81 ± 0.083
48 | UUGUUG | 1.67 ± 0.053 | 1.86 ± 0.13
49 | UUGUUA | 1.64 ± 0.022 | 1.81 ± 0.12
50 | UUGUUU | 1.78 ± 0.041 | 1.92 ± 0.085
51 | GUUCGC | 1.83 ± 0.062 | 1.92 ± 0.073
52 | GUUCGG | 1.71 ± 0.018 | 1.84 ± 0.12
53 | UUUAAA | 1.654 ± 0.0051 | 1.79 ± 0.081
54 | UUUAAG | 1.72 ± 0.027 | 1.85 ± 0.11
55 | GUGUGA | 1.41 ± 0.11 | 1.67 ± 0.084
56 | GUGUGU | 1.595 ± 0.003 | 1.77 ± 0.12
57 | GUGUGG | 1.74 ± 0.041 | 1.86 ± 0.11
58 | GUGCUC | 1.505 ± 0.0047 | 1.65 ± 0.17
